# From patent US20110039770A1, “INHIBITORS OF PROTEIN KINASE C ISOFORMS AND USES THEREOF” (PHARMAGAP INC., priority 2005, published 2011)
# Where a SMILES comes first, the peptide text is derived from it. Where no end group is shown, it is not given here. The star is where a group is joined. PNA(A) = NCCN(CC(=O)*)C(=O)Cn1cnc2c(N)ncnc21
# Key:
# PKC alpha = PKC alpha (Homo sapiens, UniProt P17252); assay: Kinase-Glo Luminescent Kinase Assay; type: biochemical; settings: for inhibition of PKC alpha activity (in words): Kinase-Glo
# Method: (§1) Compounds TIM 10, 11, 13, 14, 15, and 18-22 (see Table 28) were tested for their ability to inhibit the activity of PKC-alpha, beta 1, delta and epsilon isoforms the Kinase-Glo™ Luminescent Kinase Assay (Promega, Cat # V6712/3/4) following the manufacturer's instructions.
# PKC delta = PKC delta (Homo sapiens, UniProt Q05655); assay: Kinase-Glo Luminescent Kinase Assay; type: biochemical; settings: for inhibition of PKC delta activity (in words): Kinase-Glo
# PKC delta, sequence (Q05655 whole entry): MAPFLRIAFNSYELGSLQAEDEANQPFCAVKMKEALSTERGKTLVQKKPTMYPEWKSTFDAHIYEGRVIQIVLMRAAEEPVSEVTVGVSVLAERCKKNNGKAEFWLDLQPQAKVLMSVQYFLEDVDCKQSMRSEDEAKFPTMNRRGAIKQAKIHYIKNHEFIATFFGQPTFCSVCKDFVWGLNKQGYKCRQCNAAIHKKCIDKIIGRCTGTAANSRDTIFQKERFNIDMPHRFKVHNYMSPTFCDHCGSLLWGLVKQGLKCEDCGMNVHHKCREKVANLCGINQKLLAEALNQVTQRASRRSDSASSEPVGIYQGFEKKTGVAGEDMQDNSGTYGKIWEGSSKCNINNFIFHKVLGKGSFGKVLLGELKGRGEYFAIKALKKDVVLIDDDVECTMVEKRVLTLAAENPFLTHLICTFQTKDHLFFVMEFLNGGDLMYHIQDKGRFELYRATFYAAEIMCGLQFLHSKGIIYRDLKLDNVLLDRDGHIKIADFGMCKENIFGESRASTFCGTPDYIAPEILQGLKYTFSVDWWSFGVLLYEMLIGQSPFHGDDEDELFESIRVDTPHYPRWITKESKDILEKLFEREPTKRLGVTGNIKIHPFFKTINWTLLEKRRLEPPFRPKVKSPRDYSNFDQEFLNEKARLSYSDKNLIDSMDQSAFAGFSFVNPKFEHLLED
# Method: as §1
# PKC beta 1 = PKC beta 1 (Homo sapiens, UniProt P05771); assay: Kinase-Glo Luminescent Kinase Assay; type: biochemical; set-up: purchased; settings: for inhibition of PKC beta 1 activity (in words): Kinase-Glo
# PKC beta 1, sequence (P05771 whole entry): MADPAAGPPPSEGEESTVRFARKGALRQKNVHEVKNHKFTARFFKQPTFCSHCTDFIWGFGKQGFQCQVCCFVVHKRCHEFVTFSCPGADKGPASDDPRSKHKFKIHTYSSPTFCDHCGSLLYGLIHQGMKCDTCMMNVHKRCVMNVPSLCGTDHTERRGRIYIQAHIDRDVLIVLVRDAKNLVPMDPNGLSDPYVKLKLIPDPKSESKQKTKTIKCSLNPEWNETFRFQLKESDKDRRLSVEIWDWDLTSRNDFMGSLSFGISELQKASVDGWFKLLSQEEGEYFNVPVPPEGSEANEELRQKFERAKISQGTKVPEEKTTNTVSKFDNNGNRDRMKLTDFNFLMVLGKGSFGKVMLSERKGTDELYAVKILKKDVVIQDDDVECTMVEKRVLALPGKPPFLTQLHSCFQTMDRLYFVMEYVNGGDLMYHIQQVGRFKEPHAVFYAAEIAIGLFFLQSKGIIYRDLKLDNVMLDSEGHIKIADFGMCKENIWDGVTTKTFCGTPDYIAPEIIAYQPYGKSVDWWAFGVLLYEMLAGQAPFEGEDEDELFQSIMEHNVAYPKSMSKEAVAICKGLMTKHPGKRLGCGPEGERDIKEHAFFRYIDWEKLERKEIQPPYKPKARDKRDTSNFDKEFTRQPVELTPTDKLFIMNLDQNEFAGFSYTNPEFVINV
# Method: as §1
# PKC epsilon = target: T1, PKC epsilon (Homo sapiens, UniProt Q02156); assay: Kinase-Glo Luminescent Kinase Assay; type: biochemical; set-up: purchased
# T1 sequence (Q02156 1-737): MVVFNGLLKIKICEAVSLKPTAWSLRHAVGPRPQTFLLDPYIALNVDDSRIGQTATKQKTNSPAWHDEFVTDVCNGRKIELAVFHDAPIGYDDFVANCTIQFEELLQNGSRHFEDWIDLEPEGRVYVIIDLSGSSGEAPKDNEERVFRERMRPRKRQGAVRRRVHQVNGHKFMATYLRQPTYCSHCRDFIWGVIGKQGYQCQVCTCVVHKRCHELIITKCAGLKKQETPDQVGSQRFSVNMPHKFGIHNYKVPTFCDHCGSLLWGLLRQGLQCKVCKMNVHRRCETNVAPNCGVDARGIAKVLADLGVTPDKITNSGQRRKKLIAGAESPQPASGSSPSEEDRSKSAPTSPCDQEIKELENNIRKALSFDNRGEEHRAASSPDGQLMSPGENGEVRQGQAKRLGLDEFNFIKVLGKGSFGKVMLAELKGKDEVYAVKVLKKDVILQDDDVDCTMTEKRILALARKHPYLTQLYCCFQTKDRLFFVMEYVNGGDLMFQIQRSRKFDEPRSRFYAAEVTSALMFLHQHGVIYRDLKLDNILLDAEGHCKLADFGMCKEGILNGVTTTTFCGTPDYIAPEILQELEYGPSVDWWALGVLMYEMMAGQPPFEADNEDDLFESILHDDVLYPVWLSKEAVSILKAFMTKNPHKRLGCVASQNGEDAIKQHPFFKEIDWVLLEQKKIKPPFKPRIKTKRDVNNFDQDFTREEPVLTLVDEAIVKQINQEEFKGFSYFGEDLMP
# Method: as §1
# [1] = system: LS180 human colon cancer cells; assay: Survival of doxorubicin-resistant colon cancer cells, trypan blue exclusion; type: cell-based; settings: 50 ng/ml; 72 hrs
# Method: Highly tumourigenic human colon cancer cells (LS180; ATCC # CL-187) which constitutively express multi-drug resistance (MDR) were used for this experiment. LS180 cells were seeded in 6 well plates at a density of 2×10^5. After a 24 hr recovery cells were treated with 50 ng/ml of doxorubicin, 2.5 μM compound TIM 10, or a combination of doxorubicin and compound TIM 10 (2.5 μM and 5 μM) for 72 hrs. Note that compound TIM 10 was added to the cell culture medium; no protocol was used to force the compound into the cell. The cells were then trypsinized and counted using the standard trypan blue dye exclusion assay.
# PKC enzymes (cPKCs) = assay: Phosphorylation of MARCKS peptide by endogenous PKCs in IMR-32 cells; type: cell-based, human
# PKC-β [2] = target: T2, PKC-β (Homo sapiens, UniProt P05771); assay: Competition of PRE with PKC-β antibody binding, Protocol A, IMR-32 lysate
# T2 construct: PRE 2 and PRE 3 in IMR-32 Neuroblastoma Cells: Protocol A; endogenous in cells; host or cells: IMR-32 human neuroblastoma cells
# T2 sequence (P05771 whole entry): as the sequence (P05771 whole entry) above
# Method: (§2) Cell lysates from either IMR-32 (human neuroblastoma) cells or C6Cx43 cells (rat glioma transfected cells overexpressing connexin 43) were obtained using standard protocols and the proteins of the lysate were separated by SDS PAGE electrophoresis and electrotransferred onto a nitrocellulose membrane. The membrane was incubated for 30 minutes in blocking buffer (TBST) containing the test peptide at either 5× or 20× the concentrations of the primary antibody. A primary polyclonal antibody specific for PKC-α (Santa Cruz Biotechnology, Inc., CA) was then added (15 μg/ml) and the membrane incubated for a further 45 minutes. Finally, the primary antibody was detected with a secondary antibody conjugated to alkaline phosphatase using standard procedures. The intensity of the band corresponding to PKC-α was assessed by scanning and densitometry using the Gel-Pro software (Media Cybernetics) to obtain relative band intensities (average of 3 replicas). Control assays were conducted as described above except that blocking buffer without peptide was used.
# Peptides PRE 1, PRE 2 and PRE 3 (see Table 4) were tested for their ability to interfere with the binding of a PKC-β-specific polyclonal antibody (Santa Cruz Biotechnology, Inc.) to PKC-β using the general protocol described in Example 1. […] It is worth noting in this regard that PKC-α and PKC-β belong to the same sub-group of PKCs (cPKCs).
# PKC-β [3] = target: T2, PKC-β; assay: Competition of PRE with PKC-β antibody binding, Protocol B, IMR-32; settings: 100 μg
# Method: The ability of the peptides PRE 2 and PRE 3 (see Table 4) to interfere with the binding of a PKC-α-specific polyclonal antibody (Santa Cruz Biotechnology, Inc.) to PKC-α was determined using a modified version of the protocol outlined above in which the test peptide was added directly to the cell extract prior to electrophoresis at a concentration of either 5× or 15× the concentration of the protein applied to each well of the gel for the Western blots (20 μg).
# Peptides PRE 2 and PRE 3 (see Table 4) were tested for their ability to interfere with the binding of a PKC-β-specific polyclonal antibody (Santa Cruz Biotechnology, Inc.) to PKC-β using the general protocol described in Example 3.
# PKC-α [4] = target: T3, PKC-α (Homo sapiens, UniProt P17252); assay: Competition of PRE with PKC-α antibody binding on Western blot, Protocol A, IMR-32 lysate; set-up: endogenous PKC-α in (A) untreated human neuroblastoma (IMR-32) cells; endogenous in cells; host or cells: IMR-32 human neuroblastoma cells; settings: IMR-32 cells
# Method: The ability of the PRE 1, 2 and 3 (see Table 3 above) to interfere with the binding of a PKC-α-specific polyclonal antibody to PKC-α was determined using the following protocol.
# as §2
# The results are expressed as relative band intensity and as a percentage of the intensity of the corresponding band in the control assay (“Relative intensity (%)”). “% inhibition” relates to the percentage of the PKC-α band that is inaccessible to the antibody.
# PKC-α [5] = target: T3, PKC-α; assay: Competition of PRE with PKC-α antibody binding, Protocol B (peptide added to cell extract before electrophoresis), IMR-32; set-up: endogenous PKC-α in (A) untreated human neuroblastoma (IMR-32) cells; endogenous in cells; host or cells: IMR-32 human neuroblastoma cells; settings: 100 μg
# Method: Peptides PRE 3 and PRE 4 (see Table 4) were tested for their ability to interfere with the binding of isoform-specific polyclonal antibodies (Santa Cruz Biotechnology, Inc.) to PKC-α, PKC-βI or PKC-βII using the general protocol described in Example 3.
# [6] = system: peripheral blood lymphocytes; assay: Peripheral blood lymphocyte survival and blastogenic response to mitogens; type: cell-based; settings: primary lymphocytes of pigs, mice and human
compound,measurement,setting,value
"Ac—FRRCFRL—(G)7—KDAQNLIGISI—NH2 (Ac-FRRCFRLGGGGGGGKDAQNLIGISI-NH2) [TIM 21, PRE 4 and PKI 4]",% Inhibition PKC-α,PKC alpha; 15.0 μM,64.3%
same,% Inhibition PKC-α,PKC alpha; 30.0 μM,95.2%
same,inhibition of PKC alpha activity (in words),PKC alpha,at a lesser extent
same,% Inhibition PKC-δ,PKC delta; 2.5 μM,26.2%
same,inhibition of PKC delta activity (in words),PKC delta,exceptionally good inhibitor
same,% Inhibition PKC-βI,PKC beta 1; 5.0 μM,11%
same,% Inhibition PKC-βI,PKC beta 1; 30.0 μM,13.9%
same,inhibition of PKC beta 1 activity (in words),PKC beta 1,not active
same,% Inhibition PKC-ε,PKC epsilon; 5.0 μM,−5%
same,% Inhibition PKC-ε,PKC epsilon; 30.0 μM,52%
COc1cccc2c1C(=O)c1c(O)c3c(c(O)c1C2=O)C[C@@](O)(C(=O)CO)C[C@@H]3O[C@H]1C[C@H](N)[C@H](O)[C@H](C)O1 [doxorubicin],cell survival,[1],a large proportion of the cells survived
"Ac—FRRCFRL—(G)7—AKGIQEVKGGDAQNLIGISI—NH2 (Ac-FRRCFRLGGGGGGGAKGIQEVKGGDAQNLIGISI-NH2) [TIM 18, PRE 3 and PKI 4]",% Inhibition PKC-α,PKC alpha; 2.5 μM,16.4%
same,inhibition of PKC alpha activity (in words),PKC alpha,very potent inhibitor
same,% Inhibition PKC-δ,PKC delta; 5.0 μM,56.3%
same,% Inhibition PKC-δ,PKC delta; 30.0 μM,85.1%
same,inhibition of PKC delta activity (in words),PKC delta,inhibits the activity
same,inhibition of PKC beta 1 activity (in words),PKC beta 1,inhibits the activity
same,inhibition of PKC epsilon activity (in words),PKC epsilon; Kinase-Glo,no effect
Cn1c2ccccc2c2c3c(c4c5ccccc5n(CCC#N)c4c21)CNC3=O [Go6976],inactivation of cPKCs (MARCKS phosphorylation),PKC enzymes (cPKCs); 30 min,still very low
same,inactivation of cPKCs (phospho-MARCKS levels),PKC enzymes (cPKCs); 24 h,obvious
KDAQNLIGISL-NH2 [PRE 2],Band Intensity,PKC-β [2]; 75 μg,0.800
same,Inhibition (%),PKC-β [2]; 75 μg,31.0%
same,Relative Intensity (%),PKC-β [2]; 75 μg,69.0%
same,Band Intensity,PKC-β [2]; 300 μg,0.403
same,Inhibition (%),PKC-β [2]; 300 μg,65.3%
same,Relative Intensity (%),PKC-β [2]; 300 μg,34.7%
same,Band Intensity,PKC-β [3],0.0322
same,Inhibition (%),PKC-β [3],54.7%
same,Relative Intensity (%),PKC-β [3],45.3%
same,Band Intensity,PKC-α [4]; 75 μg,0.917
same,Inhibition (%),PKC-α [4]; 75 μg,56.1%
same,Relative Intensity (%),PKC-α [4]; 75 μg,43.9%
same,Band Intensity,PKC-α [4]; 300 μg,0.192
same,Inhibition (%),PKC-α [4]; 300 μg,90.9%
same,Relative Intensity (%),PKC-α [4]; 300 μg,9.1%
same,Inhibition (%),PKC-α [5]; Example 3,99.9%
same,Relative Intensity (%),PKC-α [5]; Example 3,0.135%
same,Band Intensity,PKC-α [5]; Example 3 (control 0.759),0.0103
CC[C@H](C)[C@H](NC(=O)[C@H](CO)NC(=O)[C@@H](NC(=O)CNC(=O)[C@@H](NC(=O)[C@H](CC(C)C)NC(=O)[C@H](CC(N)=O)NC(=O)[C@H](CCC(N)=O)NC(=O)[C@H](C)NC(=O)[C@H](CC(=O)OC)NC(=O)[C@H](CCCCN)NC(=O)CNC(=O)CNC(=O)CNC(=O)CNC(=O)CNC(=O)CNC(=O)CNC(=O)[C@H](CC(C)C)NC(=O)[C@H](CCCNC(=N)N)NC(=O)[C@H](Cc1ccccc1)NC(=O)[C@H](CCCCNC(=O)CN(CCN)C(=O)Cn1cnc2c(N)ncnc21)NC(=O)[C@H](CCCNC(=N)N)NC(=O)[C@H](CCCNC(=N)N)NC(=O)[C@H](Cc1ccccc1)NC(C)=O)[C@@H](C)CC)[C@@H](C)CC)C(N)=O [TIM 15] (Ac-FRRK(PNA(A))FRLGGGGGGGKD(OMe)AQNLIGISI-NH2),inhibition at 15 µM,"PKC alpha; 15.0 μM, read-out: % Inhibition PKC-α",32.1%
same,inhibition at 30 µM,"PKC alpha; 30.0 μM, read-out: % Inhibition PKC-α",21.8%
same,inhibition at 15 µM,"PKC delta; 15.0 μM, read-out: % Inhibition PKC-δ",18.6%
same,inhibition at 30 µM,"PKC delta; 30.0 μM, read-out: % Inhibition PKC-δ",21.8%
same,apoptosis of peripheral blood lymphocytes,[6],do not induce apoptosis
same,blastogenic response to mitogens,[6],do not drastically limit the blastogenic response
same,inhibition at 15 µM,"PKC beta 1; 15.0 μM, read-out: % Inhibition PKC-βI",18.8%
same,inhibition at 30 µM,"PKC beta 1; 30.0 μM, read-out: % Inhibition PKC-βI",-69%
same,inhibition at 15 µM,"PKC epsilon; 15.0 μM, read-out: % Inhibition PKC-ε",9%
same,inhibition at 30 µM,"PKC epsilon; 30.0 μM, read-out: % Inhibition PKC-ε",81%
